Laboratory results reported in patent publication US12618845B2, “Methods and compositions for protein sequencing” (Quantum-Si Incorporated, priority 2018, dated 2026).
Like-named read-outs stand apart in the source and are kept apart here.

System: peptide substrates
Format: biochemical

B1: VPr: Vibrio proteolyticus aminopeptidase (protein)
chain: MPPITQQATVTAWLPQVDASQITGTISSLESFTNRFYTTTSGAQASDWIASEWQALSASLPNASVKQVSHSGYNQKSVVMTITGSEAPDEWIVIGGHLDSTIGSHTNEQSVAPGADDDASGIAAVTEVIRVLSENNFQPKRSIAFMAYAAEEVGLRGSQDLANQYKSEGKNVVSALQLDMTNYKGSAQDVVFITDYTDSNFTQYLTQLMDEYLPSLTYGFDTCGYACSDHASWHNAGYPAAMPFESKFNDYNPRIHTTQDTLANSDPTGSHAKKFTQLGLAYAIEMGSATGDTPTPGNQ
HPLC Assay Conv (substrate […]1 (SEQ ID NO: 11), 600 μM Peptide, 0.08 μM enzyme, 10 mM 5Mg(OAc)2, 0 mM MOPS pH 8, 60 mM KOAc, RT/0.5 hr): 5%
HPLC Assay Conv (substrate […]1 (SEQ ID NO: 11), 600 μM Peptide, 0.8 μM enzyme, 10 mM Mg(OAc)2, 50 mM MOPS pH 8, 60 mM KOAc, RT/0.5 hr): 50%
HPLC Assay Conv (substrate […]1 (SEQ ID NO: 11), 600 μM Peptide, 8 μM enzyme, 10 mM Mg(OAc)2, 50 mM MOPS pH 8, 60 mM KOAc, RT/0.5 hr): 100%
HPLC Assay Conv (substrate […]1 (SEQ ID NO: 11), 600 μM Peptide, 8 μM enzyme, 10 mM Mg(OAc)2, 50 mM MOPS pH 8, RT/0.5 hr): 100%
HPLC Assay Conv (substrate […]1 (SEQ ID NO: 13), 300 μM Peptide, 8 μM enzyme, 10 mM Mg(OAc)2, 50 mM MOPS pH 8, 60 mM KOAc, 37° C./2 hr): 100%
HPLC Assay Conv (substrate […]1 (SEQ ID NO: 13), 300 μM Peptide, 8 μM enzyme, 10 mM Mg(OAc)2, 50 mM MOPS pH 8, 60 mM KOAc, RT/0.5 hr): 70%
HPLC Assay Conv (substrate […]1 (SEQ ID NO: 13), 300 μM Peptide, 8 μM enzyme, 10 mM Mg(OAc)2, 50 mM MOPS pH 8, 60 mM KOAc, RT/2 hr): 100%
HPLC Assay Conv (substrate […]1 (SEQ ID NO: 13), 300 μM Peptide, 8 μM enzyme, 10 mM Mg(OAc)2, 50 mM MOPS pH 8, 0.2% Tween20, RT/0.5 hr): 100%
HPLC Assay Conv (substrate […]1 (SEQ ID NO: 13), 300 μM Peptide, 8 μM enzyme, 10 mM Mg(OAc)2, 50 mM MOPS pH 8, RT/0.5 hr): 100%
HPLC Assay Conv (substrate […]1 (SEQ ID NO: 13), 300 μM Peptide, 8 μM enzyme, 50/50 MOPS Mg buffer/RB1, RT/0.5 hr): 30%
HPLC Assay Conv (substrate […]1 (SEQ ID NO: 13), 300 μM Peptide, 8 μM enzyme, RB2 + Mg, RT/0.5 hr): 5%
HPLC Assay Conv (substrate […]1 (SEQ ID NO: 13), 300 μM Peptide, 8 μM enzyme, RB4, RT/0.5 hr): 100%
HPLC Assay Conv (substrate […]1 (SEQ ID NO: 13), 600 μM Peptide, 8 μM enzyme, 10 mM Mg(OAc)2, 50 mM MOPS pH 8, RT/0.5 hr): 100%
HPLC Assay Conv (substrate […]{LYSN3}NH2 (SEQ ID NO: 107), 200 μM Peptide, 4 μM enzyme, 10 mM MgCl2, 50 mM MOPS pH 8.0, 37° C./0.5 hr): 100%
HPLC Assay Conv (substrate […]{LYSN3}NH2 (SEQ ID NO: 107), 200 μM Peptide, 4 μM enzyme, 10 mM MgCl2, 50 mM MOPS pH 8.0, 37° C./1 hr): 100%
HPLC Assay Conv (substrate […]{LYSN3}NH2 (SEQ ID NO: 107), 200 μM Peptide, 8 μM enzyme, 10 mM MgCl2, 50 mM MOPS pH 5.0, RT/0.5 hr): 100%
HPLC Assay Conv (substrate […]{LYSN3}NH2 (SEQ ID NO: 107), 200 μM Peptide, 8 μM enzyme, 10 mM MgCl2, 50 mM MOPS pH 5.0, RT/1 hr): 100%
HPLC Assay Conv (substrate […]{LYSN3}NH2 (SEQ ID NO: 107), 300 μM Peptide, 4 μM enzyme, 10 mM MgCl2, 50 mM MOPS pH 8.0, 37° C./0.5 hr): 100%
HPLC Assay Conv (substrate […]{LYSN3}NH2 (SEQ ID NO: 107), 400 μM Peptide, 8 μM enzyme, 50 mM HEPES pH 8.0, 300 mM NaCl, 1 mM DTT, 5% Glycerol, 32 mM PCA, 37° C./1 hr): 100%
HPLC Assay Conv (substrate […]{LYSN3}NH2 (SEQ ID NO: 107), 600 μM Peptide, 0.8 μM enzyme, 10 mM Mg(OAc)2, 50 mM MOPS pH 5.5, RT/0.5 hr): 100%
HPLC Assay Conv (substrate […]{LYSN3}NH2 (SEQ ID NO: 107), 600 μM Peptide, 0.8 μM enzyme, 10 mM Mg(OAc)2, 50 mM MOPS pH 6.5, RT/0.5 hr): 100%
HPLC Assay Conv (substrate […]{LYSN3}NH2 (SEQ ID NO: 107), 600 μM Peptide, 0.8 μM enzyme, 10 mM Mg(OAc)2, 50 mM MOPS pH 7.5, RT/0.5 hr): 100%
HPLC Assay Conv (substrate […]{LYSN3}NH2 (SEQ ID NO: 107), 600 μM Peptide, 0.8 μM enzyme, 10 mM Mg(OAc)2, 50 mM MOPS pH 8.5, RT/0.5 hr): 100%
HPLC Assay Conv (substrate […]{LYSN3}NH2 (SEQ ID NO: 107), 1200 μM Peptide, 800 pM enzyme, 10 mM Mg(OAc)2, 50 mM MOPS pH 7.5, RT/0.5 hr): 2.70%
HPLC Assay Conv (substrate […]{LYSN3}NH2 (SEQ ID NO: 107), 1200 μM Peptide, 800 pM enzyme, 10 mM Mg(OAc)2, 50 mM MOPS pH 8.5, RT/0.5 hr): 6.80%
HPLC Assay Conv (substrate […]{LYSN3}NH2 (SEQ ID NO: 107), 1200 μM Peptide, 0.008 μM enzyme, 10 mM Mg(OAc)2, 50 mM MOPS pH 7.5, RT/0.5 hr): 100%
HPLC Assay Conv (substrate […]{LYSN3}NH2 (SEQ ID NO: 107), 1200 μM Peptide, 0.008 μM enzyme, 10 mM Mg(OAc)2, 50 mM MOPS pH 8.5, RT/0.5 hr): 100%
HPLC Assay Conv (substrate […]{LYSN3}NH2 (SEQ ID NO: 107), 1200 μM Peptide, 0.08 μM enzyme, 10 mM Mg(OAc)2, 50 mM MOPS pH 5.5, RT/0.5 hr): 50%
HPLC Assay Conv (substrate […]{LYSN3}NH2 (SEQ ID NO: 107), 1200 μM Peptide, 0.08 μM enzyme, 10 mM Mg(OAc)2, 50 mM MOPS pH 6.5, RT/0.5 hr): 100%
HPLC Assay Conv (substrate […]{LYSN3}NH2 (SEQ ID NO: 107), 1200 μM Peptide, 0.08 μM enzyme, 10 mM Mg(OAc)2, 50 mM MOPS pH 7.5, RT/0.5 hr): 100%
HPLC Assay Conv (substrate […]{LYSN3}NH2 (SEQ ID NO: 109), 300 μM Peptide, 4 μM enzyme, 10 mM MgCl2, 50 mM MOPS pH 8.0, 37° C./0.5 hr): 100%
HPLC Assay Conv (substrate […]{LYSN3}NH2 (SEQ ID NO: X), 1200 μM Peptide, 0.08 μM enzyme, 10 mM Mg(OAc)2, 50 mM MOPS pH 8.5, RT/0.5 hr): 100%
